From US8697369B2, “Method for screening a test substance for activating a receptor associated with FGF 21 activity” (National Institute of Advanced Industrial Science and …, priority 2007, dated 2014)
“Also recorded” adds a separate entry of the source. Each block holds one molecule with its values, some of them ahead of it.

Columns and labels:
[1] = system: FGFR3c/betaKlotho-expressing BaF3 cells; test: DNA synthesis (thymidine incorporation) in FGFR3c/betaKlotho-expressing BaF3 cells; format: cell-based, mouse; conditions: BaF3 cells expressing FGFR3c and betaKlotho
Sequence of FGFR3c/betaKlotho-expressing BaF3 cells (Q61851 21-369 limits assumed): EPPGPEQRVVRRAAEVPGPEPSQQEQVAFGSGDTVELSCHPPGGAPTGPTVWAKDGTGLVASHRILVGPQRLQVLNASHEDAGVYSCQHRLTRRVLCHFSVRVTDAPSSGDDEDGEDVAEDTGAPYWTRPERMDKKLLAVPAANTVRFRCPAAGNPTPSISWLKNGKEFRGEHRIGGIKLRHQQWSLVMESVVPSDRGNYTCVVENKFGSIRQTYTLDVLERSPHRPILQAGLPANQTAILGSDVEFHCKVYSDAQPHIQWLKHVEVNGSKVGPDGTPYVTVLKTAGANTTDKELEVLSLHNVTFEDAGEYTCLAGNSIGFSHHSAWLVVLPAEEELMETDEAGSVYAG
Sequence of FGFR3c/betaKlotho-expressing BaF3 cells (Q99N32 whole entry, further chain): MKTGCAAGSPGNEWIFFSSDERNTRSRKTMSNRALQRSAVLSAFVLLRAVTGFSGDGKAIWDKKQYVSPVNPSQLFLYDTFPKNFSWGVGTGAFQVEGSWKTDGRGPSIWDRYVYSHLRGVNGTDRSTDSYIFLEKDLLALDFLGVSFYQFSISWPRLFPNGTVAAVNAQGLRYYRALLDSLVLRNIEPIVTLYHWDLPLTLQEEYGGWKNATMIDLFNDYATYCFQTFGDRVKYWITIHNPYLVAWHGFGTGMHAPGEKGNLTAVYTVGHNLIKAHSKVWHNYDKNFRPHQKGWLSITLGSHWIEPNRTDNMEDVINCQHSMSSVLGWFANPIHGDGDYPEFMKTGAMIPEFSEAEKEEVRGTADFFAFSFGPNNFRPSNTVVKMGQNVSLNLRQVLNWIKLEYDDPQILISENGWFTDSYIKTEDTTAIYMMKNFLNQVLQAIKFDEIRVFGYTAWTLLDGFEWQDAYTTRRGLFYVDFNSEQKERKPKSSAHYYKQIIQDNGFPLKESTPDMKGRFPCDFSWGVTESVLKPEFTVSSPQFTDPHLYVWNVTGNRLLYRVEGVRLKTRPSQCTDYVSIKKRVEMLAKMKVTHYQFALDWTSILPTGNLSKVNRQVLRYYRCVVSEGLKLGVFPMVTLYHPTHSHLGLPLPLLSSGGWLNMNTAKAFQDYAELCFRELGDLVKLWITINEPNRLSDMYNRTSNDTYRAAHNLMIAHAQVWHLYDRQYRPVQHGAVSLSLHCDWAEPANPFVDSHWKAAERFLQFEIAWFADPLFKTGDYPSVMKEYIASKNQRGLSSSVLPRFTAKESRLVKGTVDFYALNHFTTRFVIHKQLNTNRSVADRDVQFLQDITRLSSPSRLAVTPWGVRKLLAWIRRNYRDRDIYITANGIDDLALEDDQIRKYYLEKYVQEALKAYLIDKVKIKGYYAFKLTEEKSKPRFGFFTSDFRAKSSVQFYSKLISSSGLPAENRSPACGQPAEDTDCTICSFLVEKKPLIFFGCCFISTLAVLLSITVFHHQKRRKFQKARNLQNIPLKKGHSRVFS
Description: (§1) A commonly used measurement method is a cell growth stimulating activity measurement method described in Ornitz, D. M., Xu, J., Colvin, J. S., McEwen, D. G., MacArthur, C. A., Coulier, F., Gao, G. and Goldfarb, M. (1996) Receptor specificity of the fibroblast growth factor family. J Biol Chem, 271, 15292-15297. The summary thereof is as follows. FGF used as a measurement target is added to a culture solution containing a cultured cell having an FGF receptor on the surface thereof, and the obtained mixture is cultured for a certain period of time. Thereafter, a labeled thymidine is added to the culture solution, followed by further culture for a certain period of time. By measuring the amount of the labeled thymidine incorporated into polymeric DNA during the culture, the degree of FGF to activate DNA synthesis is evaluated. (In the present invention as well, this method was adopted when the activity of FGF21 was measured in Examples 4, 5, 6, 8, 9, and 10.)
(§2) Whether other receptor molecules can also act as such FGF receptors was examined. An expression vector containing each FGFR (FGFR1b, R1c, R2b, R2c, R3b, R3c, and R4) (described in Ornitz, D. M., Xu, J., Colvin, J. S., McEwen, D. G., MacArthur, C. A., Coulier, F., Gao, G. and Goldfarb, M. (1996) Receptor specificity of the fibroblast growth factor family. J Biol Chem, 271, 15292-15297.) was introduced into betaKlotho-expressing BaF3 cells, so as to obtain clones that were resistant to Puromycin and G418, thereby obtaining FGFR/betaKlotho-expressing cells. Such cells were stimulated with FGF21, and the amount of DNA synthesized was measured.
The activity of FGF21 to stimulate the DNA synthesis of BaF3 cells that had expressed each FGFR (FGFR1c, R2c, F3c, and R4) as well as betaKlotho was compared with the activity of FGF19, which was evolutionally relative to FGF21. By procedures opposite to those of Example 5, namely, an expression vector containing betaKlotho was introduced into BaF3 cells that had expressed each type of FGFR, so as to obtain Puromycin- and G418-resistant clones, thereby obtaining FGFR/betaKlotho-expressing cells. The cells were stimulated with FGF21, FGF19, and FGF1 in the presence of heparin, while changing the amounts of FGF21, FGF19, and FGF1, as shown in the figure, and the amount of DNA synthesized was then measured.

[2] = target: T1, FGFR2c/betaKlotho-expressing BaF3 cells (Mus musculus, UniProt P21803+Q99N32); test: DNA synthesis (thymidine incorporation) in FGFR2c/betaKlotho-expressing BaF3 cells; format: cell-based; conditions: BaF3 cells expressing FGFR2c and betaKlotho; presence of heparin
T1 construct: the entire-length cDNA of mouse betaKlotho was cloned into an animal cell expression vector; expressed in transfected cells; host or cells: BaF3 (mouse pro-B) cells
T1 sequence (P21803 22-821): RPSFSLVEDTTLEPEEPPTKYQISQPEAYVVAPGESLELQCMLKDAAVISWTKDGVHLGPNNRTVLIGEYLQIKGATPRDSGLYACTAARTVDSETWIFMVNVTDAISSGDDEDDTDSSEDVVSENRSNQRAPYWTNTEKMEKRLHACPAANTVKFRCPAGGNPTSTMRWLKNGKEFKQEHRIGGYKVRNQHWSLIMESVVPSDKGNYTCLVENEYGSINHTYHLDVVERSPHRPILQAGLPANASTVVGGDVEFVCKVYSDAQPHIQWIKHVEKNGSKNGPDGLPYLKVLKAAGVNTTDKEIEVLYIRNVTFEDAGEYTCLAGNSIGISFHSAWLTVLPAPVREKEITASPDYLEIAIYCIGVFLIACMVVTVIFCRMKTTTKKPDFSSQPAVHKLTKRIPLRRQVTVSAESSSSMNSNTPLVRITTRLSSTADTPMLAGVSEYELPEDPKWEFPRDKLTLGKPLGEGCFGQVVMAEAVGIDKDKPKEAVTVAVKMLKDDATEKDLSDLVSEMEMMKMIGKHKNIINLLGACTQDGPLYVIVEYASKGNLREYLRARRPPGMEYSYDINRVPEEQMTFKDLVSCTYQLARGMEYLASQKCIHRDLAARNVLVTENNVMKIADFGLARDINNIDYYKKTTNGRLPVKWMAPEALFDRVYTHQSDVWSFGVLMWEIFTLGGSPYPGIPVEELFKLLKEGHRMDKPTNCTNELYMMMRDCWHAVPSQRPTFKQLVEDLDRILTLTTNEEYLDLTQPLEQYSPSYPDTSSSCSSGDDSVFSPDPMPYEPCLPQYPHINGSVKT
T1 sequence (Q99N32 whole entry): as the sequence (Q99N32 whole entry, further chain) above
Description: as §1, §2
(§3) The activity of FGF21 to stimulate the DNA synthesis of BaF3 cells that had expressed each FGFR (FGFR1c, R2c, F3c, and R4) as well as betaKlotho was compared with the activity of FGF19, which was evolutionally relative to FGF21. […] The cells were stimulated with FGF21, FGF19, and FGF1 in the presence of heparin, while changing the amounts of FGF21, FGF19, and FGF1, as shown in the figure, and the amount of DNA synthesized was then measured.

[3] = system: FGFR4/betaKlotho-expressing BaF3 cells; test: DNA synthesis (thymidine incorporation) in FGFR4/betaKlotho-expressing BaF3 cells; format: cell-based, mouse; conditions: BaF3 cells expressing FGFR4 and betaKlotho; presence of heparin
Sequence of FGFR4/betaKlotho-expressing BaF3 cells (Q03142 17-366 limits assumed): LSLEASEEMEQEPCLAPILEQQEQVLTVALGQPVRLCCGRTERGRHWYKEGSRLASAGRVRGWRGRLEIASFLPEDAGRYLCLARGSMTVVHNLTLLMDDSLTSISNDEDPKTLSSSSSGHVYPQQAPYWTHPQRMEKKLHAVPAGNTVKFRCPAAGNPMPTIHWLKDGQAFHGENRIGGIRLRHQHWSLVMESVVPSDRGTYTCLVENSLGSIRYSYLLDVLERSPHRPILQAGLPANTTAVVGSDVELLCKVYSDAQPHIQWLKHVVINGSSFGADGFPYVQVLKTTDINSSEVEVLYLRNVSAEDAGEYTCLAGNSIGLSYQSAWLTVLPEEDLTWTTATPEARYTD
Sequence of FGFR4/betaKlotho-expressing BaF3 cells (Q99N32 whole entry, further chain): as the sequence (Q99N32 whole entry, further chain) above
Description: as §1, §2, §3

[4] = target: T2, R1c/betaKlotho-expressing cells (Mus musculus, UniProt P16092+Q99N32); test: Phosphorylation of FRS2 and MAPK (Western blotting) in R1c/betaKlotho-expressing cells; format: cell-based; conditions: presence of heparin; 10 minutes stimulation
T2 construct: the entire-length cDNA of mouse FGFR1c had been cloned; the entire-length cDNA of mouse betaKlotho was cloned into an animal cell expression vector; expressed in transfected cells; host or cells: BaF3 (mouse pro-B) cells
T2 sequence (P16092 22-822): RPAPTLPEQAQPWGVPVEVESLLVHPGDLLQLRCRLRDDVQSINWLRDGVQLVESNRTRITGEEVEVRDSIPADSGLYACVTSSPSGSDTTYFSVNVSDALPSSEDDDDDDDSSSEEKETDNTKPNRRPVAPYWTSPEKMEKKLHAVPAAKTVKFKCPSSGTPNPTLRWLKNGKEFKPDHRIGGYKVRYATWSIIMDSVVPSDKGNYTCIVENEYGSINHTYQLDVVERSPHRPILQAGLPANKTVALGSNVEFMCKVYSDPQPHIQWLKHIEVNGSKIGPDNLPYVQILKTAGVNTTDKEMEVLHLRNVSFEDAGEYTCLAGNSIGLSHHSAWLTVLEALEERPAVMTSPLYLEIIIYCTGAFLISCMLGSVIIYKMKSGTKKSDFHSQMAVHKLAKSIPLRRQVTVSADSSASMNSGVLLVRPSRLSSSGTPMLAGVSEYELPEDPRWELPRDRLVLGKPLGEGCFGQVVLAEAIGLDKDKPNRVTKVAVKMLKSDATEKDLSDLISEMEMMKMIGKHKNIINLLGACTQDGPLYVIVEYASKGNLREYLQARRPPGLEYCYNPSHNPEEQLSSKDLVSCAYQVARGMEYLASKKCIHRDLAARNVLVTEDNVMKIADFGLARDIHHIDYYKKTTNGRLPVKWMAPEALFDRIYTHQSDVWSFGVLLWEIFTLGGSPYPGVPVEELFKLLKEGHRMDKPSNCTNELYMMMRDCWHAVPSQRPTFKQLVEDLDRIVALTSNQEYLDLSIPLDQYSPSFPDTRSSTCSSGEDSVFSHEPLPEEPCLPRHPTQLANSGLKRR
T2 sequence (Q99N32 whole entry): as the sequence (Q99N32 whole entry, further chain) above
Description: (§4) Each FGFR/betaKlotho-expressing cells obtained in Example 6 were stimulated with FGF, and the activated state (phosphorylated state) of a signaling molecule FRS2 (fibroblast growth factor receptor substrate 2) located downstream of FGFR, and that of MAPK (mitogen activated protein kinase; alias: ERK (extracellular signal-regulated kinase; in general, there are two types of ERKs, namely, ERK1 with a molecular weight of 44 kDa and ERK2 with a molecular weight of 42 kDa)), were analyzed. Different types of cells were stimulated with each FGF in the presence of heparin for 10 minutes, and a cell lysate was then prepared. Thereafter, the phosphorylated degree was evaluated by measuring it by a Western blotting method using a commercially available anti-phosphorylation FRS2 antibody or an anti-phosphorylation MAPK antibody.

[5] = target: T3, FGFR2c/betaKlotho-expressing cells (Mus musculus, UniProt P21803+Q99N32); test: Phosphorylation of FRS2 and MAPK (Western blotting) in FGFR2c/betaKlotho-expressing cells; format: cell-based; conditions: presence of heparin; 10 minutes stimulation
T3 construct: the entire-length cDNA of mouse betaKlotho was cloned into an animal cell expression vector; expressed in transfected cells; host or cells: BaF3 (mouse pro-B) cells
T3 sequence (P21803 22-821): as the sequence (P21803 22-821) above
T3 sequence (Q99N32 whole entry): as the sequence (Q99N32 whole entry, further chain) above
Description: as §4

[6] = system: FGFR4/betaKlotho-expressing cells; test: Phosphorylation of FRS2 and MAPK (Western blotting) in FGFR4/betaKlotho-expressing cells; format: cell-based, mouse; conditions: presence of heparin; 10 minutes stimulation
Sequence of FGFR4/betaKlotho-expressing cells (Q03142 143-366 limits assumed): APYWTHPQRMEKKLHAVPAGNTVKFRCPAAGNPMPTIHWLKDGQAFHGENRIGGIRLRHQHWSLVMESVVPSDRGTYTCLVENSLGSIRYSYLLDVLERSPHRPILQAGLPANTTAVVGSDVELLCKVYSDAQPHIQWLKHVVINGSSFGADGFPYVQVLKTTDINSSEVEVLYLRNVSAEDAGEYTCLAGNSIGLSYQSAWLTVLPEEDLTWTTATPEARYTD
Sequence of FGFR4/betaKlotho-expressing cells (as listed by the source): as the sequence (Q99N32 whole entry, further chain) above
Description: as §4

[7] = system: betaKlotho/FGFR-expressing cells (FGFR1b, R1c, R2b, R2c, R3b, R3c, R4); test: Thymidine incorporation in betaKlotho/FGFR-expressing BaF3 cells with or without heparin; format: cell-based, mouse; conditions: presence versus absence of heparin
Description: An expression vector of such FGF receptor (FGFR1b, R1c, R2b, F2c, R3b, R3c, and R4) was introduced into BaF3 cells expressing betaKlotho, and each type of betaKlotho/FGFR-expressing cells were stimulated with FGF21 and FGF1 in the presence or absence of heparin, so that the ability of the cells to incorporate thymidine therein was measured. As a result, it was shown that both FGFR1c- and FGFR3c-expressing cells react with FGF21.
as §2

DNA synthesis (thymidine incorporated into the cells) [2]: reacts with all of the receptors
Molecule: FGF1: conventional FGF used as a control
DNA synthesis (thymidine incorporated into the cells) [1]: reacts with all of the receptors
DNA synthesis (thymidine incorporated into the cells) [3]: reacts with all of the receptors
phosphorylation of FRS2 and MAPK [4]: significantly increase the phosphorylation
phosphorylation of FRS2 and MAPK [5]: significantly increase the phosphorylation
phosphorylation of FRS2 and MAPK [6]: significantly increase the phosphorylation
influence of heparin on stimulus transmission activity (thymidine incorporation) [7]: sharply increased in the presence of heparin

DNA synthesis (thymidine incorporated into the cells) [2]: slightly react with FGFR2c
phosphorylation of FRS2 and MAPK [4]: increases the phosphorylation
B1: FGF21: fibroblast growth factor 21; mouse-derived protein used in Examples 1-7 and 10-13 (protein)
chain: AYPIPDSSPLLQFGGQVRQRYLYTDDDQDTEAHLEIREDGTVVGAAHRSPESLLELKALKPGVIQILGVKASRFLCQQPDGALYGSPHFDPEACSFRELLLEDGYNVYQSEAHGLPLRLPQKDSPNQDATSWGPVRFLPMPGLLHEPQDQAGFLPPEPPDVGSSDPLSMVEPLQGRSPSYAS
DNA synthesis (thymidine incorporated into the cells) [1]: reacted with FGF21; also recorded: activates
DNA synthesis (thymidine incorporated into the cells) [3]: reacts only with FGFR1c and FGFR3c
phosphorylation of FRS2 and MAPK [5]: only in FGFR1c/betaKlotho-expressing cells and FGFR3c/betaKlotho-expressing cells
phosphorylation of FRS2 and MAPK [6]: only in FGFR1c/betaKlotho-expressing cells and FGFR3c/betaKlotho-expressing cells
influence of heparin on stimulus transmission activity (thymidine incorporation) [7]: does not significantly influence
